How the values were obtained:
rhesus serum albumin = molecular target: T1, rhesus serum albumin (rhesus, UniProt Q28522 17-600); test: direct binding ELISA, albumin coated
T1 construct: also called RhSA; Rh-SA

human serum albumin = molecular target: T2, human serum albumin (human, UniProt P02768 25-609); test: direct binding ELISA, albumin coated
T2 construct: immobilized on chips or coated on plates elsewhere; also called HSA; HuSA

mouse serum albumin = molecular target: T3, mouse serum albumin (mouse, UniProt P07724 25-608); test: direct binding ELISA, albumin coated
T3 construct: also called MSA; MuSA

human PCSK9 [1] = molecular target: T4, human PCSK9 (human, UniProt Q8NBP7 31-692); test: PCSK9:EGFA FRET 1, competition
T4 construct: also called hPCSK9; huPCSK9

human PCSK9 [2] = molecular target: T4, human PCSK9; test: PCSK9:LDLR FRET, competition
human PCSK9 [3] = molecular target: T4, human PCSK9; test: PCSK9:EGFA FRET 2, competition

Binder | EC50 (rhesus serum albumin) | EC50 (human serum albumin) | EC50 (mouse serum albumin) | IC50 (human PCSK9 [1]) | IC50 (human PCSK9 [2]) | IC50 (human PCSK9 [3])
PCSK9-PKE2 tandem 4472_E09 (designed binder, In the real molecule the two parts given here are one polypeptide, joined by the undisclosed linker A. They are written as two chains only because the linker has no letters., not shown: Linker 'A' joining ...NYRTE of the PCSK9 domain to GVSDV... of the PKE2 domain) PCSK9 domain: MGVSDVPRDLEVVAATPTSLLISWDAPAEGYGYYRITYGETGGNSPVQEFTVPVSKGTATISGLKPGVDYTITVYAVEFDFPGAGYYHRPISINYRTE PKE2 domain: GVSDVPRDLEVVAATPTSLLISWDAPAVTVRYYRITYGREVQKYSDLGPLYIYQEFTVPGSKSTATISGLKPGVDYTITVYAVTGSGESPASSKPISINYRTEHHHHHH | 19.8 nM | 23.8 nM | 7 nM | 5.81 nM | 1.3 nM | 4.81 nM
PCSK9-PKE2 tandem 4472_F04 (designed binder, The real molecule is ONE polypeptide: PCSK9 domain, undisclosed linker D, PKE2 domain. It is given here as two chains because the linker letters are unknown., not shown: The inter-domain linker) PCSK9 domain: MGVSDVPRDLEVVAATPTSLLISWDAPAEGYGYYRITYGETGGNSPVQEFTVPVSKGTATISGLKPGVDYTITVYAVEFDFPGAGYYHRPISINYRTE PKE2 domain: GVSDVPRDLEVVAATPTSLLISWDAPAVTVRYYRITYGREVQKYSDLGPLYIYQEFTVPGSKSTATISGLKPGVDYTITVYAVTGSGESPASSKPISINYRTEHHHHHH | 27.8 nM | 40.3 nM | 3.8 nM | 3.99 nM | 1.2 nM | 4.18 nM
PCSK9-PKE2 tandem 4472_B05 (designed binder, not shown: small tags and cut ends, The two parts are one polypeptide in the real molecule, joined by the undisclosed linker O; they are given here as separate chains.) PCSK9 10Fn3: MGVSDVPRDLEVVAATPTSLLISWDAPAEGYGYYRITYGETGGNSPVQEFTVPVSKGTATISGLKPGVDYTITVYAVEFDFPGAGYYHRPISINYRTE PKE2 10Fn3: GVSDVPRDLEVVAATPTSLLISWDAPAVTVRYYRITYGREVQKYSDLGPLYIYQEFTVPGSKSTATISGLKPGVDYTITVYAVTGSGESPASSKPISINYRTEHHHHHH | 59.5 nM | 85.1 nM | 9.3 nM | 6.66 nM | 1.9 nM | 5.55 nM
PCSK9-PKE2 tandem 4472_B03 (designed binder, not shown: The inter-domain linker; In the real molecule the two parts below are one polypeptide joined by this linker) PCSK9 domain: MGVSDVPRDLEVVAATPTSLLISWDAPAEGYGYYRITYGETGGNSPVQEFTVPVSKGTATISGLKPGVDYTITVYAVEFDFPGAGYYHRPISINYRTE PKE2 domain: GVSDVPRDLEVVAATPTSLLISWDAPAVTVRYYRITYGREVQKYSDLGPLYIYQEFTVPGSKSTATISGLKPGVDYTITVYAVTGSGESPASSKPISINYRTEHHHHHH | 98.2 nM | 124 nM | 14.8 nM | 7.45 nM | 1.4 nM | 4.83 nM
PCSK9-PKE2 tandem 4472_F06 (designed binder, The real molecule is ONE polypeptide: PCSK9 domain, undisclosed linker 'G' (a code letter, not the residue), PKE2 domain. It is given here as two chains because the linker letters are unknown., not shown: The inter-domain linker) PCSK9 domain: MGVSDVPRDLEVVAATPTSLLISWDAPAEGYGYYRITYGETGGNSPVQEFTVPVSKGTATISGLKPGVDYTITVYAVEFDFPGAGYYHRPISINYRTE PKE2 domain: GVSDVPRDLEVVAATPTSLLISWDAPAVTVRYYRITYGREVQKYSDLGPLYIYQEFTVPGSKSTATISGLKPGVDYTITVYAVTGSGESPASSKPISINYRTEHHHHHH | 40.8 nM | 58.9 nM | 11.3 nM | 4.5 nM | 1.1 nM | 3.42 nM
PCSK9-PKE2 tandem 4472_G10 (designed binder, The real molecule is ONE polypeptide: PCSK9 domain, undisclosed linker H (a code letter), PKE2 domain. It is given here as two chains because the linker letters are unknown., not shown: The inter-domain linker) PCSK9 domain: MGVSDVPRDLEVVAATPTSLLISWDAPAEGYGYYRITYGETGGNSPVQEFTVPVSKGTATISGLKPGVDYTITVYAVEFDFPGAGYYHRPISINYRTE PKE2 domain: GVSDVPRDLEVVAATPTSLLISWDAPAVTVRYYRITYGREVQKYSDLGPLYIYQEFTVPGSKSTATISGLKPGVDYTITVYAVTGSGESPASSKPISINYRTEHHHHHH | 48.3 nM | 61.3 nM | 10 nM | 7.81 nM | 2.4 nM | 6.81 nM
PCSK9-PKE2 tandem 4472_E04 (designed binder, not shown: small tags and cut ends, The two parts are one polypeptide in the real molecule, joined by the undisclosed linker Q; they are given here as separate chains.) PCSK9 10Fn3: MGVSDVPRDLEVVAATPTSLLISWDAPAEGYGYYRITYGETGGNSPVQEFTVPVSKGTATISGLKPGVDYTITVYAVEFDFPGAGYYHRPISINYRTE PKE2 10Fn3: GVSDVPRDLEVVAATPTSLLISWDAPAVTVRYYRITYGREVQKYSDLGPLYIYQEFTVPGSKSTATISGLKPGVDYTITVYAVTGSGESPASSKPISINYRTEHHHHHH | 64.8 nM | 101 nM | 8.9 nM | 9.45 nM | 2 nM | 7.54 nM
PCSK9-PKE2 tandem 4472_B10 (designed binder, The real molecule is ONE polypeptide: PCSK9 domain, undisclosed linker J, PKE2 domain. It is given here as two chains because the linker letters are unknown., not shown: The inter-domain linker) PCSK9 domain: MGVSDVPRDLEVVAATPTSLLISWDAPAEGYGYYRITYGETGGNSPVQEFTVPVSKGTATISGLKPGVDYTITVYAVEFDFPGAGYYHRPISINYRTE PKE2 domain: GVSDVPRDLEVVAATPTSLLISWDAPAVTVRYYRITYGREVQKYSDLGPLYIYQEFTVPGSKSTATISGLKPGVDYTITVYAVTGSGESPASSKPISINYRTEHHHHHH | 38.9 nM | 67.7 nM | 10.9 nM | 9.69 nM | 2.2 nM | 6.97 nM
PCSK9-PKE2 tandem 4472_A06 (designed binder, not shown: small tags and cut ends, The two parts are one polypeptide in the real molecule, joined by the undisclosed linker M; they are given here as separate chains.) PCSK9 10Fn3: MGVSDVPRDLEVVAATPTSLLISWDAPAEGYGYYRITYGETGGNSPVQEFTVPVSKGTATISGLKPGVDYTITVYAVEFDFPGAGYYHRPISINYRTE PKE2 10Fn3: GVSDVPRDLEVVAATPTSLLISWDAPAVTVRYYRITYGREVQKYSDLGPLYIYQEFTVPGSKSTATISGLKPGVDYTITVYAVTGSGESPASSKPISINYRTEHHHHHH | 44.4 nM | 77.8 nM | 8.6 nM | 9.06 nM | 1.6 nM | 2.72 nM
PCSK9-PKE2 tandem 4472_E05 (designed binder, not shown: small tags and cut ends, The two parts are one polypeptide in the real molecule, joined by the undisclosed linker R; they are given here as separate chains.) PCSK9 10Fn3: MGVSDVPRDLEVVAATPTSLLISWDAPAEGYGYYRITYGETGGNSPVQEFTVPVSKGTATISGLKPGVDYTITVYAVEFDFPGAGYYHRPISINYRTE PKE2 10Fn3: GVSDVPRDLEVVAATPTSLLISWDAPAVTVRYYRITYGREVQKYSDLGPLYIYQEFTVPGSKSTATISGLKPGVDYTITVYAVTGSGESPASSKPISINYRTEHHHHHH | 63.1 nM | 102 nM | 13.1 nM | 5.66 nM | 1.5 nM | 4.35 nM
PCSK9-PKE2 tandem 4472_B09 (designed binder, not shown: small tags and cut ends, The two parts are one polypeptide in the real molecule, joined by the undisclosed linker K; they are given here as separate chains.) PCSK9 10Fn3: MGVSDVPRDLEVVAATPTSLLISWDAPAEGYGYYRITYGETGGNSPVQEFTVPVSKGTATISGLKPGVDYTITVYAVEFDFPGAGYYHRPISINYRTE PKE2 10Fn3: GVSDVPRDLEVVAATPTSLLISWDAPAVTVRYYRITYGREVQKYSDLGPLYIYQEFTVPGSKSTATISGLKPGVDYTITVYAVTGSGESPASSKPISINYRTEHHHHHH | 45.1 nM | 69.2 nM | 9.8 nM | 9.36 nM | 2.4 nM | 6.95 nM
PCSK9-PKE2 tandem 4472_A11 (designed binder, In the real molecule the two parts given here are one polypeptide, joined by the undisclosed linker B. They are written as two chains only because the linker has no letters., not shown: Linker 'B' joining ...NYRTE of the PCSK9 domain to GVSDV... of the PKE2 domain) PCSK9 domain: MGVSDVPRDLEVVAATPTSLLISWDAPAEGYGYYRITYGETGGNSPVQEFTVPVSKGTATISGLKPGVDYTITVYAVEFDFPGAGYYHRPISINYRTE PKE2 domain: GVSDVPRDLEVVAATPTSLLISWDAPAVTVRYYRITYGREVQKYSDLGPLYIYQEFTVPGSKSTATISGLKPGVDYTITVYAVTGSGESPASSKPISINYRTEHHHHHH | 15.7 nM | 26.9 nM | 3.9 nM | 6.13 nM | 1.4 nM | 3.76 nM
PCSK9-PKE2 tandem 4472_H11 (designed binder, not shown: small tags and cut ends, The two parts are one polypeptide in the real molecule, joined by the undisclosed linker P (a code, not a proline); they are given here as separate chains.) PCSK9 10Fn3: MGVSDVPRDLEVVAATPTSLLISWDAPAEGYGYYRITYGETGGNSPVQEFTVPVSKGTATISGLKPGVDYTITVYAVEFDFPGAGYYHRPISINYRTE PKE2 10Fn3: GVSDVPRDLEVVAATPTSLLISWDAPAVTVRYYRITYGREVQKYSDLGPLYIYQEFTVPGSKSTATISGLKPGVDYTITVYAVTGSGESPASSKPISINYRTEHHHHHH | 58.1 nM | 85.3 nM | 13.2 nM | 8.76 nM | 1.3 nM | 6.24 nM
PCSK9-PKE2 tandem 4472_D08 (designed binder, not shown: small tags and cut ends, The two parts are one polypeptide in the real molecule, joined by the undisclosed linker N; they are given here as separate chains.) PCSK9 10Fn3: MGVSDVPRDLEVVAATPTSLLISWDAPAEGYGYYRITYGETGGNSPVQEFTVPVSKGTATISGLKPGVDYTITVYAVEFDFPGAGYYHRPISINYRTE PKE2 10Fn3: GVSDVPRDLEVVAATPTSLLISWDAPAVTVRYYRITYGREVQKYSDLGPLYIYQEFTVPGSKSTATISGLKPGVDYTITVYAVTGSGESPASSKPISINYRTEHHHHHH | 54.1 nM | 80.2 nM | 9.5 nM | 6.32 nM | 1.7 nM | 5.22 nM
PCSK9-PKE2 tandem 4472_B11 (designed binder, not shown: small tags and cut ends, The two parts are one polypeptide in the real molecule, joined by the undisclosed linker L; they are given here as separate chains.) PCSK9 10Fn3: MGVSDVPRDLEVVAATPTSLLISWDAPAEGYGYYRITYGETGGNSPVQEFTVPVSKGTATISGLKPGVDYTITVYAVEFDFPGAGYYHRPISINYRTE PKE2 10Fn3: GVSDVPRDLEVVAATPTSLLISWDAPAVTVRYYRITYGREVQKYSDLGPLYIYQEFTVPGSKSTATISGLKPGVDYTITVYAVTGSGESPASSKPISINYRTEHHHHHH | 54 nM | 70.1 nM | 13.5 nM | 6.54 nM | 2 nM | 5.03 nM
PCSK9-PKE2 tandem 4472_H09 (designed binder, The real molecule is ONE polypeptide: PCSK9 domain, undisclosed linker C, PKE2 domain. It is given here as two chains because the linker letters are unknown., not shown: The inter-domain linker) PCSK9 domain: MGVSDVPRDLEVVAATPTSLLISWDAPAEGYGYYRITYGETGGNSPVQEFTVPVSKGTATISGLKPGVDYTITVYAVEFDFPGAGYYHRPISINYRTE PKE2 domain: GVSDVPRDLEVVAATPTSLLISWDAPAVTVRYYRITYGREVQKYSDLGPLYIYQEFTVPGSKSTATISGLKPGVDYTITVYAVTGSGESPASSKPISINYRTEHHHHHH | 26.8 nM | 27.8 nM | 4 nM | 9.66 nM | 3 nM | 7.17 nM
PCSK9-PKE2 tandem 4472_C08 (designed binder, The real molecule is ONE polypeptide: PCSK9 domain, undisclosed linker 'E' (a code letter, not the residue), PKE2 domain. It is given here as two chains because the linker letters are unknown., not shown: The inter-domain linker) PCSK9 domain: MGVSDVPRDLEVVAATPTSLLISWDAPAEGYGYYRITYGETGGNSPVQEFTVPVSKGTATISGLKPGVDYTITVYAVEFDFPGAGYYHRPISINYRTE PKE2 domain: GVSDVPRDLEVVAATPTSLLISWDAPAVTVRYYRITYGREVQKYSDLGPLYIYQEFTVPGSKSTATISGLKPGVDYTITVYAVTGSGESPASSKPISINYRTEHHHHHH | 25.7 nM | 40.4 nM | 4.8 nM | 9.38 nM | 1.9 nM | 5.09 nM
